Source: publication PMC10192129, “The thioesterase APT1 is a bidirectional-adjustment redox sensor” (Nature Communications, 2023)
Several values for one entry are separate records, joined by “and”; a condition that tells them apart may be missing. Identical values can stand only once.

Legend:
[1] = biological target: the molecule itself; assay: nonreducing capillary electrophoresis immunoassay (Simple Jess) + other: nonreducing SDS-PAGE with immunoblot; root lysates of p35S:APT1-GFP/apt1 plants after 4 mM H2O2 for 15 min to 6 h (also 1 dpi with F. oxysporum); DTT-free buffers, samples not heated, anti-GFP
[2] = biological target: the molecule itself; assay: nonreducing SDS-PAGE with immunoblot; 6 × His-APT1 proteins after Ni purification from E. coli, no reducing agent; Tris-Tricine SDS-PAGE system
[3] = biological target: the molecule itself; assay: not stated; in vivo in M. truncatula under drought stress (Supplementary Fig. 2a)

B1: APT1-GFP fusion protein (p35S:APT1-GFP) in M. truncatula apt1 roots (enzyme)
chain: not shown
notes: acyl-protein thioesterase 1 (APT1) of Medicago truncatula, cDNA from ecotype A17; Detected with anti-GFP; source: transgenic M. truncatula apt1 mutant roots (p35S:APT1-GFP), in lysate
With B1 the “stoichiometry N” value [1] was 4.

B2: 6 × His-APT1 fusion protein (acyl-protein thioesterase 1, Medicago truncatula) (enzyme)
chain: not shown
notes: acyl-protein thioesterase 1 (APT1, MtAPT1) of Medicago truncatula; cDNA amplified from ecotype A17; cysteines at C20, C22 and C37; The vector pET-30a(+) may add further vector-encoded residues (surmised); also called MtAPT1; pET-30a(+)-His-APT1
In the case of B2, the “stoichiometry N” value [2] is reported as 2 and 4.

B3: APT1 in M. truncatula under drought stress (enzyme)
chain: not shown
notes: acyl-protein thioesterase 1 (APT1) of Medicago truncatula; May be the same APT1-GFP as m9 (surmised); source: in vivo in M. truncatula
For B3, the “stoichiometry N” value [3] was 4.
